± gives the uncertainty stated by the source.
experiment: amyloid nucleation score (Sup35N fusion, yeast selection) (log enrichment); library NNK2; higher = more nucleation; inactive = no reads after selection
Outline: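 DiMSum was used to calculate nucleation scores as log enrichment of output over input reads, centred on the mode score of non-aggregating sequences. Sequences with fewer than 100 input reads were not scored. Input and output came from Illumina sequencing of plasmid inserts in psi-negative yeast expressing peptides of 20 random codons fused to Sup35N, induced 24 hours with 100 μM copper sulfate and then grown 7 days at 30°C on medium lacking adenine and uracil.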

Substance	amyloid nucleation score
CALGDATFNVWYMLS	4.14 ± 0.05
CALNFCAEVARFLRMLKSLL	-0.042 ± 0.79
CARFAN	0.599 ± 0.64
CASEVDNNSPPRWVRRTAGV	0.777 ± 0.45
CASLRIEDP	1.17 ± 0.18
CCAVTVAMECGGIVLVRYCF	0.453 ± 0.66
CCCLSKHSNECGLRMDRPFT	0.909 ± 0.6
CCDVRS	0.558 ± 0.51
CCFTGIKGSYCFSWLACG	-0.082 ± 0.3
CCFVLTVR	5.174 ± 0.035
CCGFGDEKDN	-0.206 ± 1.1
CCLENTRVLTVLVSLSMV	0.582 ± 0.35
CCQFLVTWDVAYTSMFGSTL	3.56 ± 0.056
CCQSSEYCWCAWQTSVTSVG	0.404 ± 0.8
CCRGLIRMLDCCNYRRK	3.75 ± 0.067
CCVVYF	9.638 ± 0.039
CDFSSVTD	-0.357 ± 0.4
CDLFGSCVDIWDTYINLSDR	-0.573 ± 1.1
CDMSHGTFFTIFCRLTNA	4.81 ± 0.11
CDQYHSQPWMLKTQIRLMTA	1.27 ± 0.3
CDQYLIYNLSVSGMSIASRG	-0.497 ± 0.79
CEFRDQRFPLVCAGYGRYIG	0.653 ± 0.57
CEHRSLTFWHNGLLD	-0.143 ± 0.65
CEMLCQTIHSTLTWGIRRLS	1.12 ± 0.46
CFFFISAVGPEILIVGFLGV	-0.684 ± 1

Substance	amyloid nucleation score
CFFTCC	9.912 ± 0.045
CFRNWACMSSQRYCMVVRGN	-1.58 ± 0.54
CFSRIFICN	-0.075 ± 0.49
CFVGTQLSFKVG	0.173 ± 0.49
CFVWIIRLYVQSRMLSTSNL	-0.181 ± 0.8
CGLYWFMVFTF	0.147 ± 0.76
CGNLSCPVGVCGIFRRPSTG	inactive
CGSRQAA	5.3 ± 0.085
CGWTDFMMYTWTEIMQIQLR	-1.03 ± 0.76
CHKSACCKILVDDIALFN	-0.419 ± 0.32
CHLIVICIQFDKLNLESAFH	0.547 ± 0.81
CHRAKTVVGNRVNRGDWDNP	-0.434 ± 0.76
CHRLSNLKRVDDAGFVRWNY	-0.477 ± 0.23
CIELFPFAMVNRIFATYSYH	-0.352 ± 0.25
CIGLHC	-0.196 ± 1
CIISFGLMHEYCYVAM	1.9 ± 0.13
CILARWRYRRLHTSGLWASK	0.9 ± 0.43
CIMVSIVPKGVCLGVLVAVA	0.345 ± 0.28
CINANRGRFLKEIMDLVLRE	-0.586 ± 0.23
CINVYKY	6.768 ± 0.026
CIRRESCIRICGGDCVCHRA	2.97 ± 0.091
CIYVYSLVWM	2.42 ± 0.2
CKKKSRTDCMLSFCVCFDGV	7.276 ± 0.035
CKLISFIRYPPPAYVVSRER	2.33 ± 0.13
CKMRFLNMWRHFLKCLTAYT	inactive

Substance	amyloid nucleation score
CKTTQDSDITCK	-0.747 ± 0.79
CKVSVDN	0.011 ± 0.36
CKWIKEIVVED	-0.981 ± 1
CKWWGRGEGDIVVLWLSEKL	0.942 ± 0.66
CLCCYTIM	7.381 ± 0.044
CLCGYYQSRMDTYYEL	-2.18 ± 0.54
CLCPTNYDSSRIYLVRC	inactive
CLDFYFIVGNFNQHLVRCVL	1.79 ± 0.16
CLDNNKNYLDSRCGIRCY	inactive
CLINMTIYGERWRCVNDVPN	3.54 ± 0.052
CLKFFADGSQAGCSERAGLR	0.041 ± 0.28
CLLLLCNPRISAE	-0.582 ± 0.76
CLMDCGLYFTGSNLRAMCTW	-0.223 ± 0.49
CLNKIETPSTVKFRECHCCD	4.517 ± 0.041
CLNPFDSYGTSYCKCWWSAT	-0.451 ± 0.33
CLNTLFVEFRCLSMGACCGI	1.1 ± 0.31
CLPFYCTFGSVVARAGVYH	inactive
CLQCQLIRRGLTKMNMGFAS	-0.023 ± 0.45
CLRFC	-0.453 ± 1.1
CLSGLLIWAHHSLKLDVLIG	0.366 ± 0.64
CLVWLDI	-1.11 ± 0.55
CLYCGDLLLRFEYKCRGVNQ	5.15 ± 0.092
CLYRRLYKLALNMEIIILRY	inactive
CMFSLNGAYSMPHVKMSMCM	-0.786 ± 0.46
CMKGVNSLDIASVSQFNLNR	2.28 ± 0.13

Substance	amyloid nucleation score
CMSNAKCKGVDFAAGKLLSC	-0.004 ± 0.49
CMSRFGRCNFVHDTWMGFTR	2.93 ± 0.1
CMWWIHDPGRDRLKELKVAR	0.452 ± 0.36
CNCQMGDVLEGLGDVGLNNF	-1.65 ± 0.62
CNEDFLSQLVVLHFKEYGDN	inactive
CNERFERLFISVTGFVMRRH	-0.358 ± 0.39
CNLSVVYLLDMAD	3.99 ± 0.044
CNMLRVNHRNLVLTDMCNG	0.204 ± 0.8
CNNCYALYHDGV	-0.396 ± 0.39
CNTLLTFNYNAYVIEVM	0.839 ± 0.17
CNVHWGRL	0.089 ± 0.8
CNYKYSDLVFHCLPPGRGYN	inactive
CPCYCLTSFACLGNSVPTWR	10.15 ± 0.043
CPMCTFLCCLAFY	8.626 ± 0.04
CQCSVSVGNTDSHNLPKVYV	-0.221 ± 1.1
CQMYYFYFNLLMWDMA	inactive
CQPNLWARVCLVWCYW	3 ± 0.094
CRIGA	-0.252 ± 0.28
CRLPQQKPHEMPTLDDFARS	0.553 ± 0.44
CRNCLLGHLRLVTHHVRILY	inactive
CRSCVVSYCGCEYLESLGGK	0.525 ± 0.64
CRVNRGRGNSTTLYMMDFGY	2.7 ± 0.088
CRWISTTLIFARCELFRLAV	0.567 ± 0.38
CSCEVALIIK	inactive
CSCGYMKANR	-0.721 ± 1

Substance	amyloid nucleation score
CSCHKSSCLRTTFCLEHSSG	6.866 ± 0.062
CSDRSICFANSYFEF	-0.101 ± 0.63
CSHPFDYVQTILRTVTLFLI	-0.114 ± 0.63
CSINLRAYPVLSRGATVACK	0.755 ± 0.55
CSLFYRSS	4.06 ± 0.056
CSLQYYSLRNDRDRVTELRR	0.475 ± 0.51
CSLTSFAGNSIYFRWRANT	1.18 ± 0.14
CSMKYGCRVYVRNPSLSECD	0.547 ± 0.45
CSNYQRYTILVYPTRSYGCL	0.558 ± 0.6
CSRGP	0.534 ± 0.64
CSTTWGDTIAGHEAGLVSLS	1.02 ± 0.37
CTIRLECLLA	-0.428 ± 0.46
CTLRGGYISWVQVYE	2.1 ± 0.1
CTPLGFCSKNRLGLQEDGVK	-0.788 ± 0.76
CTSHWAYEDEDFFIDRLYFT	-0.796 ± 0.3
CTTSWKMSCKFALGN	4.04 ± 0.07
CTWDFNDHFMLVQNNDEQLW	0.087 ± 0.79
CVDSKWLYFGRWSTQVIDI	-0.196 ± 1
CVGGVSNCMRYGKTFRDESY	-0.438 ± 0.27
CVMFTLSCVNFDCDCSCRWK	6.31 ± 0.084
CVMIESLKVFISPWLASRIR	-0.291 ± 0.65
CVMNF	-0.586 ± 0.42
CVNITYI	4.625 ± 0.031
CVRCTFCIVSVICFSIYLSE	-0.448 ± 0.55
CVSVAFNRNISWW	-0.021 ± 0.34

Substance	amyloid nucleation score
CVTRMDYTDVSDMHLM	0.307 ± 0.56
CVWHVF	inactive
CVYEIPKM	3.09 ± 0.048
CWGVVGSAAGWYSGTK	1.46 ± 0.21
CWRVDSFVLGNHNGIGVCFV	-0.918 ± 0.41
CYAIMNGVSFLDLIGGARET	5.85 ± 0.077
CYFNARSDSVNVYVV	-0.029 ± 1.1
CYGVFLVVSWDHGGDQIGVV	-0.482 ± 0.48
CYHVTLMR	0.718 ± 0.26
CYIRSVFSQWLTACLVNWFM	-1.86 ± 1.1
CYISFWARRFDEYLSLLSFA	-0.343 ± 0.42
CYLMKSFMNLSDRNVFGNVT	-0.295 ± 0.32
CYRHSERYRTSSLLSWERGP	0.783 ± 0.57
CYWWDWVLY	-0.032 ± 0.45
DAFWLWSFIWACVLCFTKHR	-0.549 ± 0.45
DAFYDS	-2.05 ± 0.75
DAKRVQIYF	1.02 ± 0.68
DANLQIH	-0.774 ± 0.45
DARSDVF	inactive
DAVFGTCSLFCRTCAKASFG	1.58 ± 0.25
DCCRWSVLVVIVLAARSSMS	3.17 ± 0.099
DCIHCSRTNAADWMGYVFGY	4.82 ± 0.085
DCLYGRFRHRHG	5.723 ± 0.035
DCMLNGLRWEMMLYKLDCFT	0.189 ± 0.64
DCMTMINLICNGMPAICRMT	0.445 ± 0.18

Substance	amyloid nucleation score
DCQVSTLAYWSRVKMFQYQK	3.71 ± 0.077
DCSDPCGSAPKDLSTKTVRC	1.61 ± 0.26
DDCKQRTHNDYMD	0.175 ± 0.37
DDSHLNCDNRIVISMLRNGN	0.528 ± 0.32
DEMARVYIHY	0.183 ± 0.74
DFDVEA	-0.176 ± 1.1
DFIMFLAGPNSVNYNVVLYF	7.437 ± 0.055
DFINIPSVFIIYMK	1.73 ± 0.13
DFKDEGYQRRV	-0.37 ± 0.65
DFLSGTMVDETSDKGISLLV	0.605 ± 0.47
DFLVYCGLLEQLWLLSDAKC	-0.356 ± 1.1
DFMRDFWKDSDNQEVFLLPI	-0.885 ± 0.44
DFSMIGSEKVAPGKNPDASL	0.22 ± 0.57
DGCLARGYNKGVHDGVVEYL	-0.088 ± 1.1
DGDNNCMCS	0.404 ± 0.48
DGHVELCISAKDYD	-0.249 ± 0.53
DGLARAYAARM	1.53 ± 0.29
DGPNYILQVFCCMMVNVCGC	7.609 ± 0.061
DGPWYYTVRAEIQPM	3.78 ± 0.079
DGRKALI	1.87 ± 0.35
DHPYTRKFI	-0.311 ± 0.79
DHRIWKAAREVVLVCHL	0.629 ± 0.4
DIDAIYTFRACGDMPSHFRR	-0.172 ± 0.35
DIIVYM	inactive

From the supplement of paper PMC12042874
